Target: human toll-like receptor 4 (TLR4) on HEK293 cells expressing human TLR4-MD2-CD14 (human) (UniProt O00206)
Experiment: flow cytometry on cells

Sequence of UniProt O00206 (O00206 24-839): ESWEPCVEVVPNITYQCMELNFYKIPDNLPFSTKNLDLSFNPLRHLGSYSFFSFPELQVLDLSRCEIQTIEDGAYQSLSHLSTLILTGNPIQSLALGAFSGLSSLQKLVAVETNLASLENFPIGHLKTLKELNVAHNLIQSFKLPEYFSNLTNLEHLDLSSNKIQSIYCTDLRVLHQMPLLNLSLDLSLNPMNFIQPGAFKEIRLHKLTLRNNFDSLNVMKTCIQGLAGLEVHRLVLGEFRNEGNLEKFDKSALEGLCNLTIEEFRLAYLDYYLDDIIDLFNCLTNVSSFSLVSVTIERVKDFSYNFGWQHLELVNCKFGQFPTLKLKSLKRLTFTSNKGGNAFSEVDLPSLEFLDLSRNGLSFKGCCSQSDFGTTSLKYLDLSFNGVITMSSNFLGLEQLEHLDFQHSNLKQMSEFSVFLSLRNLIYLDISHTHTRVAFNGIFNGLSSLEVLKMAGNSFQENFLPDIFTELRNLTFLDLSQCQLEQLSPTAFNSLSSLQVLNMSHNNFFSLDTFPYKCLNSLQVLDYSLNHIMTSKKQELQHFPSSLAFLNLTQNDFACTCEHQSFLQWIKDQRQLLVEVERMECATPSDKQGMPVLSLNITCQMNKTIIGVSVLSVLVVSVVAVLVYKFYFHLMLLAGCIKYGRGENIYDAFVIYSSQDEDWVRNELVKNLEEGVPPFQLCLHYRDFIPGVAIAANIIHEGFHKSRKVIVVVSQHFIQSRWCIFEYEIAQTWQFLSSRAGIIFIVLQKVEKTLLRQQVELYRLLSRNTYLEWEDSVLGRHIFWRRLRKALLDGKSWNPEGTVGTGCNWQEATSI

Substance: hEDA-HPVE7-16/18 fusion protein (human extra domain A from fibronectin fused to E7 proteins from HPV16 and HPV18)
- TLR4-binding capacity (percent, flow cytometry): 36.9%

Substance: hEDA-HPVE7-16 fusion protein (human extra domain A from fibronectin fused to E7 protein from HPV16)
- level of fluorescence (percent, flow cytometry): 19.5%

Substance: mEDA-HPVE7-16 fusion protein (extra domain A from murine fibronectin fused to E7 protein from HPV16)
- TLR4-binding capacity (percent, flow cytometry): 40.2%
